# Test: label from the status in PepcDB records
row,Sequence,protein production
1,MADIRVTHEAQVTVISFPAVFQRLRETEVEQIASTFLAAMQGAQPRKVLIDLEGVEFFGSSFIELLVRGWKRIKEDQQGVFALCSVSPYCVEVLQVTHIDEVWPRYSTKQEALLAMAS,not failed
2,MRFRDRRHAGALLAEALAPLGLEAPVVLGLPRGGVVVADEVARRLGGELDVVLVRKVGAPGNPEFALGAVGEGGELVLMPYALRYADQSYLEREAARQRDVLRKRAERYRRVRPKAARKGRDVVLVDDGVATGASMEAALSVVFQEGPRRVVVAVPVASPEAVERLKARAEVVALSVPQDFAAVGAYYLDFGEVTDEDVEAILLEWAG,not failed
3,MEVDKKDEREAESSEQVVNPWEVSAKDGGKIDYDKLIDKFGCQRLDESLIDRVQRLTSRQPHVFLRRSVFFAHRDFNEILDAYERGDKFYLYTGRGPSSEALHLGHLIPFMFTKYLQEAFKVPLVIQLTDDEKSIWKNLSVEESQRLARENAKDIIACGFDVTKTFIFSDFDYVGGAFYKNMVKVGKCVTLNKAMGIFGFSGEDPIAKLSFPPVQAVPSFPSSFPHLFPGKDNLRCLIPCAIDQDPYFRMTRDVAPRLGYSKPALIESTFFPALQGENGKMSASDPNSAIYVTDSAKDIKNKINRYAFSGGQDSIEKHRELGANLEVDIPVKYLSFFLEDDSELEHIKKEYGEGRMLTGEVKKRLTEVLTEIVERHRRARAAVTDEMVDAFMAVRPLPSMFE,not failed
4,EKEKDTIAAEHKQEASVLLNLHRNKINYLIGETMARMTSLSIAIDRPVDIKKMQSILEKTFDSEPRFSGLYFLNAKGDVTASTTELKTKVNLADRSFFIKAKETKKTVISDSYSSRITGQPIFTICVPVLDSKRNVTDYLVAAIQIDYLKNLINLLSPDVYIEVVNQDGKMIFASGQASHAEDQKPVSGYLDDISWNMKVYPNPVTIEELSKSL,not failed
5,MNNRDLLLGIFVMIIWGLNFSVIKLGVSEIDPLLLTALRFSFAVIPAVFFVKRPQVKWRYLMGYGLVFAIGVWGMGSWSIQAGLSAGMASVLLQMNVVISLLVGYFVLKETVAPIKVVGSVVAILGLALSVSVTDGSVTTLGLVFILIAALSWSITSILVKKAGTKEIFAFSIWGMLFAPLPLFALAFLRGGPEQLQTLNSLANGSVIFSVLFQAYPVTLFGYWVWNRLLVKYPLSTVAPLTFLVPIFGLLGSAIFYQEQIGLVKALACLLIIVGLIIGLIKTEKLKAYLHQPKSAKQVV,failed
6,MKKKLLNYLILLACLATVSVSCSGSAQAAVLGDDYPFSWKYGGFGVDPWTMYWRQCTSFAAYRLSNTNGFTLPIGYGNAITWGNIARANGHRVDMNPAVGSIAWFSAGVNGAGHMGHVAWVAEVHGDQVTIEEYNYDAGQGPEKYHKRSFHKSQVSGYIHFKDLESGTQNGNPTNSSIKVGDSVRFTGTFRVTSVSGNTITSQDLAGGTPTKHNIVDPSPVLEVDAQGNPTSDQYLNPGETFTIPGNFKVLAIDPPSDGILVQIGNLKTWVTQSVLEKILEHHHHHH,not failed
7,MSLDVYVNFPADGHVREIAKTVLDGFDLHWYPDYYDAEAQVIKDRYVLGKRTKMIQAISAGVDHIDVNGIPENVVLCSNAGAYSISVAEHAFALLLAHAKNILENNELMKAGIFRQSPTTLLYGKALGILGYGGIGRRVAHLAKAFGMRVIAYTRSSVDQNVDVISESPADLFRQSDFVLIAIPLTDKTRGMVNSRLLANARKNLTIVNVARADVVSKPDMIGFLKERSDVWYLSDVWWNEPEITETNLRNAILSPHVAGGMSGEIMDIAIQLAFENVRNFFEGEGHHHHHH,not failed
8,MKHFKLPDLGEGLQEAEIVEWHVKAGDSVRADQRLVSVETAKALVDIPAPYDGVVGKLFGAEGDILHVGEPLVGFEGEEADAGTVVGRLEGGGSALEDRFFIGAAPSTREHLAPRATPAVRQFARQQGVELAGLSGSGPDGLITRADVEAAAQGTRERFGGERLRGVRRSMALNMARSHAEVVPVTIYGDADLHRWKTARDPLIRLAQALAEACRAEPTLNAWFDGASLSLKLHERLDLGIAVDTPDGLFVPVLRDVGARSAEDLRAGMRRLREDVQARSIPPAEMLGATLTLSNFGTLFGRYANPVVVPPQVAILGAGGIRDEVVAWRGEMAIHPILPLSLSFDHRAATGGEAARFLKVLVNALEQPD,failed
9,MRIHDIDPDNRPRERFLRSGKESLSPAELLALILRSGTAGLNIIDTCNKLISEHGLERLADLSIQELQKTPGIGEAKAMQIAAIFELQRRLHFARNMNLKVKGARDVFEYMKGRIPDETKEHLFVLFLSTKNQILRHETITIGTLTASLIHPREIFKAAIRESAHSIILVHNHPSGDVQPSNADKQVTSILKKAGDLLQIELLDHVIVGNNDWFSFRDHALL,failed
10,MDRSERLIQLISEEGIDAFLIMNIENSARASSVYFSGFTGSFSIILISENTRLLITDSRYTVQAKQETDFEVREVKGGDFIDVLKKTVNDLKIKTIALEEERVSLSLFRRISSAFGDRKFIGIDDEVKQMRMVK,failed
11,MSTDQTPTAAGSGFSYTLTRTLDAPAARVWQAWTTPDQYAQWAYAVPGSVEMDVRPGGTWKATMRTPDGTEFPLTGSYIEVAEHRALTIGMNVPGRPDPATMTVELAEEGPRNTVITLRQTCDTAEERDGAEQGSGMLLDGLTGFLAGGKQG,failed
12,MEIGIIGTGNIGGTLARKLIAAGHQVRVANSKGIHGVQSFADEIGATAVDVYGAVKGADAIILSIPLPALASLPNGFFDDLPETVPLIDTSNYYPGLRDPLIPEIDDGMTESVWVSQQLSHPVIKAFNNILAWSLAELGTPKGSASRLAIAVAGDNATLKQIVMNLVDDTGFDAIDAGSLEESWRQQPSTPAYCCDYDAETMKKGLTAAVRGEAASKRDRLPLEHHHHHH,failed
13,MYRIIEAPNSGKYPFSHSLLIGKSCIIDTGSGEALAPLRVDCVLNTHWHEDHIAMNSIGRKVLAHPLDAEAIESYEEFRRRYGIGDSVRLFINFEFGQVDDVFEDGEQLEFEGVSVEVIHTPGHSAGHCCFVINNEAVFLGDIDLTSFGPWYGCLDCDVDDFVRSVKKMMREVERRDIEIAIPSHGRPVYGKEEIIGAMREYLKKIFERDKAIRELVRLGVDPVGKGIIYRKIPEPREIYLHFEKIMVEKHLTTSLDEFCLDLEHHHHHH,failed
14,MKAIILAGGHSVRFGKPKAFAEVNGETFYSRVIKTLESTNMFNEIIISTNAQLATQFKYPNVVIDDENHNDKGPLAGIYTIMKQHPEEELFFVVSVDTPMITGKAVSTLYQFLVSHLIENHLDVAAFKEDGRFIPTIAFYSPNALGAITKALHSDNYSFKNIYHELSTDYLDVRDVDAPSYWYKNINYQHDLDALIQKLLEHHHHHH,not failed
15,IPKHPDSEAVAPDPFNPAATQLLDDTSWVLSAWKQADGTARAVPSADQGAPITLTLSTSTGQRHASGFSGCNRYMGSYALKDGKLSFGTLGGTRMACMTPGGQIEGAYLNALTHIDRTGVQMRAPQQMQLVLDNGDTLTFDRSTR,not failed
16,MTRYLRLSGLEPFVLTPDIPFVNVGERTNVTGSARFRKLITNRDYAAALEVARDQVQNGAQILDVNMDEGLIDSKAAMVEFLNLIASEPDIARVPLMIDSSKWEVIEAGLKCVQGKPVVNSISLKEGEESFRRQAGLCLAYGAAVVVMAFDEEGQADSFARKTTICARAYRILVEEVGFPPEDIIFDPNVFAVATGIEEHDNYGVDFIEAARWIRANLPHAHVSGGVSNLSFSFRGNEPVREAMHAVFLYHAIRAGMDMGIVNAGQLAVYDQIDPDLREACEDVVLNRKPKQGGTATERLLALAER,failed
17,ITSVQPPTGLQEWLKMFQSWSGPEKLLALDELIDSCEPTQVKHMMQVIEPQFQRDFISLLPKELALYVLSFLEPKDLLQAAQTCRYWRILAEDNLLWREKCKEEGIDEPLHIKRRKVIKPGFIHSPWKSAYIRQHRIDTNWRRGELKSPKVLKGHDDHVITCLQFCGNRIVSGSDDNTLKVWSAVTGKCLRTLVGHTGGVWSSQMRDNIIISGSTDRTLKVWNAETGECIHTLYGHTSTVRCMHLHEKRVVSGSRDATLRVWDIETGQCLHVLMGHVAAVRCVQYDGRRVVSGAYDFMVKVWDPETETCLHTLQGHTNRVYSLQFDGIHVVSGSLDTSIRVWDVETGNCIHTLTGHQSLTSGMELKDNILVSGNADSTVKIWDIKTGQCLQTLQGPNKHQSAVTCLQFNKNFVITSSDDGTVKLWDLKTGEFIRNLVTLESGGSGGVVWRIRASNTKLVCAVGSRNGTEETKLLVLDFDVDMK,failed
